Values of other authors, collected in patent publication US5189019A, “Antistasin derived anticoagulant protein” (Merck & Co., Inc., priority 1990, dated 1993).

Target: Factor Xa (Homo sapiens, UniProt P00742)
Conditions: Tuszynski et al. 1987; Nutt et al. 1988

Sequence of Factor Xa (P00742 235-488 limits assumed): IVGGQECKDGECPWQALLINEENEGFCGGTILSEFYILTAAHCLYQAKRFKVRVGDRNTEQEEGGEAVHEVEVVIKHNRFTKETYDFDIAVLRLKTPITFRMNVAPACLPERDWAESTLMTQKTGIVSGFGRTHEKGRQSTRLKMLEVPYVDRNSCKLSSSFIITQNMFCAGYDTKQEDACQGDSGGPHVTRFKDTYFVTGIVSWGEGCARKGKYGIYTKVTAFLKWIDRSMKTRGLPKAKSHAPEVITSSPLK
Sequence of Factor Xa (P00742 41-179 partner limits assumed): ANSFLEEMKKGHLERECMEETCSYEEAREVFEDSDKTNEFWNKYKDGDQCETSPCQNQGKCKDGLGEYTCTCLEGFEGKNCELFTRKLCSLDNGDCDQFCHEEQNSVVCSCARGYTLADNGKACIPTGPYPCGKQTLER

B1: Antistasin: 15 kDa cysteine rich protein found in the salivary gland of the Mexican leech, Haementeria officinalis (protein, UniProt P15358 18-136, looked up)
Antistasin: QGPFGPGCEEAGCPEGSACNIITDRCTCSGVRCRMHCPHGFQRSRYGCEFCKCRLEPMKATCDISECPEGMMCSRLTNKCDCKIDINCRKTCPNGLKRDKLGCEYCECRPKRKLIPRLS
inhibition of Factor Xa in the human blood coagulation cascade: potent inhibitor
